In publication PMC10939263 (2024) one finds ratio to parent data, which are given here for six variants.

B1: SRC kinase associated phosphoprotein 1 (SKAP1), wild type, N2-fused [human] / FRK, C1-fused [not stated] (parent complex)
chain 1: MQAAALPEEIRWLLEDAEEFLAEGLRNENLSAVARDHRDHILRGFQQIKARYYWDFQPQGGDIGQDSSDDNHSGTLGLSLTSDAPFLSDYQDEGMEDIVKGAQELDNVIKQGYLEKKSKDHSFFGSEWQKRWCVVSRGLFYYYANEKSKQPKGTFLIKGYGVRMAPHLRRDSKKESCFELTSQDRRSYEFTATSPAEARDWVDQISFLLKDLSSLTIPYEEDEEEEEKEETYDDIDGFDSPSCGSQCRPTILPGSVGIKEPTEEKEEEDIYEVLPDEEHDLEEDESGTRRKGVDYASYYQGLWDCHGDQPDELSFQRGDLIRILSKEYNMYGWWVGELNSLVGIVPKEYLTTAFEVEER
chain 2: MSNICQRLWEYLEPYLPCLSTEADKSTVIENPGALCSPQSQRHGHYFVALFDYQARTAEDLSFRAGDKLQVLDTLHEGWWFARHLEKRRDGSSQQLQGYIPSNYVAEDRSLQAEPWFFGAIGRSDAEKQLLYSENKTGSFLIRESESQKGEFSLSVLDGAVVKHYRIKRLDEGGFFLTRRRIFSTLNEFVSHYTKTSDGLCVKLGKPCLKIQVPAPFDLSYKTVDQWEIDRNSIQLLKRLGSGQFGEVWEGLWNNTTPVAVKTLKPGSMDPNDFLREAQIMKNLRHPKLIQLYAVCTLEDPIYIITELMRHGSLQEYLQNDTGSKIHLTQQVDMAAQVASGMAYLESRNYIHRDLAARNVLVGEHNIYKVADFGLARVFKVDNEDIYESRHEIKLPVKWTAPEAIRSNKFSIKSDVWSFGILLYEIITYGKMPYSGMTGAQVIQMLAQNYRLPQPSNCPQQFYNIMLECWNAEPKERPTFETLRWKLEDYFETDSSYSDANNFIR
B2: SRC kinase associated phosphoprotein 1 (SKAP1), wild type, N2-fused [human] / BLK, C1-fused [not stated] (parent complex)
chain 1: B1 chain 1
chain 2: not shown
B3: SRC kinase associated phosphoprotein 1 (SKAP1), wild type, N2-fused [human] / LYN, C1-fused [not stated] (parent complex)
chain 1: B1 chain 1
chain 2: MGCIKSKGKDSLSDDGVDLKTQPVRNTERTIYVRDPTSNKQQRPVPESQLLPGQRFQTKDPEEQGDIVVALYPYDGIHPDDLSFKKGEKMKVLEEHGEWWKAKSLLTKKEGFIPSNYVAKLNTLETEEWFFKDITRKDAERQLLAPGNSAGAFLIRESETLKGSFSLSVRDFDPVHGDVIKHYKIRSLDNGGYYISPRITFPCISDMIKHYQKQADGLCRRLEKACISPKPQKPWDKDAWEIPRESIKLVKRLGAGQFGEVWMGYYNNSTKVAVKTLKPGTMSVQAFLEEANLMKTLQHDKLVRLYAVVTREEPIYIITEYMAKGSLLDFLKSDEGGKVLLPKLIDFSAQIAEGMAYIERKNYIHRDLRAANVLVSESLMCKIADFGLARVIEDNEYTAREGAKFPIKWTAPEAINFGCFTIKSDVWSFGILLYEIVTYGKIPYPGRTNADVMTALSQGYRMPRVENCPDELYDIMKMCWKEKAEERPTFDYLQSVLDDFYTATEGQYQQQP
B4: SRC kinase associated phosphoprotein 1 (SKAP1), wild type, N2-fused [human] / SRMS, C1-fused [not stated] (parent complex)
chain 1: B1 chain 1
chain 2: MEPFLRRRLAFLSFFWDKIWPAGGEPDHGTPGSLDPNTDPVPTLPAEPCSPFPQLFLALYDFTARCGGELSVRRGDRLCALEEGGGYIFARRLSGQPSAGLVPITHVAKASPETLSDQPWYFSGVSRTQAQQLLLSPPNEPGAFLIRPSESSLGGYSLSVRAQAKVCHYRVSMAADGSLYLQKGRLFPGLEELLTYYKANWKLIQNPLLQPCMPQKAPRQDVWERPHSEFALGRKLGEGYFGEVWEGLWLGSLPVAIKVIKSANMKLTDLAKEIQTLKGLRHERLIRLHAVCSGGEPVYIVTELMRKGNLQAFLGTPEGRALRLPPLLGFACQVAEGMSYLEEQRVVHRDLAARNVLVDDGLACKVADFGLARLLKDDIYSPSSSSKIPVKWTAPEAANYRVFSQKSDVWSFGVLLHEVFTYGQCPYEGMTNHETLQQIMRGYRLPRPAACPAEVYVLMLECWRSSPEERPSFATLREKLHAIHRCHP
B5: SRC kinase associated phosphoprotein 1 (SKAP1), wild type, N2-fused [human] / FYN (isoform without exon 7), C1-fused [not stated] (parent complex)
chain 1: B1 chain 1
chain 2: not shown

The variants in one test derive from B1. Nature of the test: luciferase complementation assay (normalized luciferase ratio, NLR); HEK293T cells; one experiment; read off a plot.
In the case of chain 1 W333K, the ratio to parent was about 1.2.

Take chain 1 D120K: the ratio to parent was about 1.9.

Another test covers variants of B2. The description is as above.
As to chain 1 W333K, the ratio to parent was about 1.8.

In the next test the parent is B3. The description is as above.
Regarding chain 1 W333K, the ratio to parent is about 2.

A further test covers variants of B4. The test is described as above.
On to chain 1 W333K, for which the ratio to parent is about 1.3.

Variants of B5 are the subject of a further test. The description is as above.
For chain 1 W333K, the ratio to parent is about 1.2.
